Nine molecules from patent US20100196398A1 (AstraZeneca / MedImmune, published 2010) can be followed below.

Substitutions are numbered along the chain they refer to. A value given as a limit tells only on which side of the number the result lay.

First the molecules themselves.
T1: human CD105 (human, UniProt P17813 26-658)
T1 construct: whole, on cells; Target as carried by HUVEC cells in the FACS assays; also called endoglin; END
T1 sequence (looked up): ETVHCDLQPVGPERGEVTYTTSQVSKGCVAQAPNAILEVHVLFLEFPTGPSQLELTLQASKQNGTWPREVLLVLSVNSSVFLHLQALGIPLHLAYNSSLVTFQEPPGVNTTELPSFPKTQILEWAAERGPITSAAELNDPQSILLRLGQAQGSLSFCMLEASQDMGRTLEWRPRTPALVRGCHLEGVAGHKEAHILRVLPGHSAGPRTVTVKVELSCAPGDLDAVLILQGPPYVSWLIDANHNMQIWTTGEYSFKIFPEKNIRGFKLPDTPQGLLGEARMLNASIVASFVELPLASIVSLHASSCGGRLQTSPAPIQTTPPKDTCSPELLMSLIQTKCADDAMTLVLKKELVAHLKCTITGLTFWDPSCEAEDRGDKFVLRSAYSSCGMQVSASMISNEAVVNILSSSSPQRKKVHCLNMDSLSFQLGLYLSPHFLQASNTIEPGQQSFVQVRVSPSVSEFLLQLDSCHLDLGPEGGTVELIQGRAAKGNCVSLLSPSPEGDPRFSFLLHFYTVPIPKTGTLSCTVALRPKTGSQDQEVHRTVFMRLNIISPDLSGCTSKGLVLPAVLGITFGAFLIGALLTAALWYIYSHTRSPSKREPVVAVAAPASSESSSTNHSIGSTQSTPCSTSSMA

B1: fully human monoclonal antibody 6A6 (antibody, V domains shown)
VH: EVQLLESGGGLVQPGGSLRLSCAASGFTFSSYAMSWVRQAPGKGLEWVSTISGGGHSTYYADSVKGRFTISRDNSKNTLYLQMNSLRAEDTAVYYCARIAPAGPHFDYWGQGTLVTVSS
VL: NFMLTQPHSVSESPGKTVTFSCTRSSGSIASNFVQWYQQRPGSSPTTVIYEHNQRPSGVPDRFSGSIDSSSSSASLTISGLKTEDEADYYCQFYDRNSHWVFGGGTKLTVL
notes: XenoMouse hybridoma antibody of Campaign 2 (IgG2 and IgG4 strains); also called 6A6.2
B2: fully human monoclonal antibody 6B10 (antibody, V domains shown)
VH: QEQLVESGGGVVQPGRSLRLSCTASGFTFSNYGIHWVRQAPGKGLEWVTVISYDGSKKYYADSVKGRFTISRDNSKNTLYLQMNSLRAEDTAVYYCARAFSTMVRGVDHWGQGTLVTVSS
VL: DIQMTQSPSSLSASVGDRVTITCQASQDIYKSLNWYQQRPGKAPNLLIYDASNLETGVPSRFSGSGSGTDFTFTISSLQPEDFARYFCQQYDNLPLTFGGGTRVEIK
notes: XenoMouse hybridoma antibody of Campaign 2 (IgG2 and IgG4 strains); also called 6B10.1; mAb 6B10
B3: fully human monoclonal antibody 6B1 (antibody, V domains shown)
VH: QVQLVESGGGVVQPGRSLRLSCAASGFTFSSYGMHWVRQAPGKGLEWVAVIWYDGSNKYYADSVKGRFTISRDNSKNTLYLQMNSLRAEDTAVYYCVRDYSSGWYWGQGTLVTVSS
VL: SYELTQPPSVSVSPGQTARITCSGDALPKKYAYWYQQKSGQAPVLVIYEDSKRPSGIPERFSGSSSGTMATLTISGAQVEDEADYSCYSIDSSVNHVVFGGGTKLTVL
notes: XenoMouse hybridoma antibody of Campaign 2 (IgG2 and IgG4 strains); also called 6B1.1
B4: fully human monoclonal antibody 4.37 (antibody, V domains shown)
VH: QVQLVESGGGVVQPGRSLRLSCAASGFTFSDYGMHWVRQAPGKGLEWVAVIWYDGSNKYYADSVKGRFTISRDNSKNTLYLQMNSLRAEDTAVYYCARAAGFYYYYGMDVWGQGTTVTVSS
VL: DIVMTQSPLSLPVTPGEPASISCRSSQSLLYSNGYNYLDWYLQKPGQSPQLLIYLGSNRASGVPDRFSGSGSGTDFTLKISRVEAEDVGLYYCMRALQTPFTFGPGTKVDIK
notes: XenoMouse hybridoma antibody of Campaign 1 (IgG1 and IgG4 strains immunised with soluble CD105); also called mAb 4.37; 4.37κ
B5: fully human monoclonal antibody 4.120 (antibody, V domains shown)
VH: QVQLQESGPGLVKPSETLSLTCTVSGGSISSYYWSWIRQPAGKGLEWIGRIYTSGSTNYNPSLKSRVTMSVDTSKNQFSLKLSSVTAADTAVYYCARRDIGATIKGFDYWGQGTLVTVSS
VL: not shown
notes: XenoMouse hybridoma antibody of Campaign 1 (IgG1 and IgG4 strains immunised with soluble CD105); also called mAb 4.120
B6: fully human monoclonal antibody 10C9 (antibody, V domains shown)
VH: QVQLVESGGGVVQPGRSLRLSCAASGFTFRSYGMHWVRQAPGKGLEWVAVIWYDGSNKYYADSVKGRFTISRDNSKNTLDLQMNSLRAEDTAVYYCARDRIAAARYYNGMDVWGQGTTVTVSS
VL: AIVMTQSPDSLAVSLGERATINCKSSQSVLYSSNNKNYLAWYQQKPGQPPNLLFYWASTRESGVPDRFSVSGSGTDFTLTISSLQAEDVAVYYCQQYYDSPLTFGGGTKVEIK
notes: XenoMouse hybridoma antibody of Campaign 2 (IgG2 and IgG4 strains); also called 10C9.2
B7: fully human monoclonal antibody 4D4 (antibody, V domains shown)
VH: QVQLVESGGGVVQPGRSLRLSCAASGFTFSSYGMHWVRQAPGKGLEWVAVIWYDGSNKYYADSVKGRFTISRDNSKNTLYLQMNSLRAEDTAVYYCARVLGATGGYYYYYGMDVWGQGTTVTVSS
VL: not shown
notes: XenoMouse hybridoma antibody of Campaign 2 (IgG2 and IgG4 strains); also called 4D4.1
B8: fully human monoclonal antibody 11H2 (antibody, V domains shown)
VH: QVQLVESGGGVVQPGRSLRLSCAASGFSFSSYGMHWVRQAPGKGLDWVAIIWYDGSYKYYADSVKGRFTISRDNSKNTLSLQMNSLRAEDTAVYYCARDGKYPFDYWGQGTLVTVSS
VL: SYVLTQPPSVSVAPGQTARITCGGNNIGSKSVHWYQQKPGQAPVLVVYDDSDRPSGIPERFSGSNSGNTATLTISRVEAGDEADYYCQVWDRSSDHVVFGGGTKLTVL
notes: XenoMouse hybridoma antibody of Campaign 2 (IgG2 and IgG4 strains); also called 11H2.1
B9: fully human monoclonal antibody 9H10 (antibody, V domains shown)
VH: QVQLVESGGGVVQPGRSLRLSCAASGFAFINYGMHWVRQAPGKGLDWVAVISYDGSNKYYTDSVKGRFTISRDNSKNTLYLQMNSLRAEDTAVYYCARDLMGATLFDNWGQGTLVTVSS
VL: B8 VL with T21S, Y35F, R92S
notes: XenoMouse hybridoma antibody of Campaign 2 (IgG2 and IgG4 strains immunised with B300.19/human CD105 cells); also called 9H10.2

The target of the first experiment is T1, human CD105. The experiment in a line: FACS KD determination on HUVEC cells, 4° C., nonlinear fit of geometric mean fluorescence.
Method: The affinity of the anti-CD105 antibodies was determined by FACS. […] Cells were kept on ice. Purified antibodies were serially diluted in filtered 1×PBS (2×) across 11 wells in 96-well plates. The twelfth well in each row contained buffer only. Cells and 1×PBS were added to each mAb well such that the final volume was 30 μL/well and each well contained approximately 100,000 cells. Plates were placed on a plate shaker for 3 hours at 4° C., then spun and washed 3 times with PBS. A fluorochrome-labeled secondary goat α-human polyclonal antibody was added to each well in a 200 μL volume. Plates were then incubated for 40 minutes at 4° C., then spun and washed 3 times with PBS.
The Geometric Mean Fluorescence (GMF) of 10,000 cells for each mAb concentration was determined using a FACSCalibur instrument. A nonlinear plot of GMF as a function of molecular mAb concentration was fit using Scientist software using the equation:
In the above equation, F=Geometric mean fluorescence, LT=total molecular mAb concentration, P′=proportionality constant that relates arbitrary fluorescence units to bound mAb, and KD=equilibrium dissociation constant. For each mAb an estimate for KD was obtained as P′ and KD were allowed to float freely in the nonlinear analysis.
The Kd is a measure of binding affinity in units of concentration. A low value points to tighter binding. In turn, B1 showed a Kd of under 1.15 nM.
Molecule B2 came in with an equilibrium dissociation constant (Kd) of under 0.149 nM.
The same measure, in the same setting: then B3, with 2.3 nM; and B4, with under 0.717 nM; and B5, with 0.77 nM.
With B6, the Kd is under 0.748 nM.
B7: the dissociation constant Kd stood at 0.622 nM.
The same measure, in the same setting: the result for B8 reads 0.338 nM; that for B9, under 0.584 nM.

The target in the next experiment is T1, human CD105. In words: FACS competition on HUVEC cells: unlabeled mAb at 50 ug/ml, wash, then FITC-labeled SN6 at 2 ug/ml; blocked antibody: SN6.
As for B1, the “Max % Bloc(king) of SN6 binding” value came out at 95.4%.
On to B2, for which the “Max % Bloc(king) of SN6 binding” value was 96.9%.
For B3, the “Max % Bloc(king) of SN6 binding” value was found to be 20.5%.
On the same count and under the same terms, then B4, with 57%; and B5, with 29.4%; and B6, with 9%.
Consider B7, for which the “Max % Bloc(king) of SN6 binding” value came to 5.1%.
Regarding B8, the “Max % Bloc(king) of SN6 binding” value came out at 29.4%.
Consider B9, for which the “Max % Bloc(king) of SN6 binding” value came out at 81.9%.
